Source: article PMC9098913, “In vitro reconstitution of Escherichia coli divisome activation” (Nature Communications, 2022)

Assay: Diffusion coefficient (Dcoeff) of FtsA from FRAP
Details: for Diffusion Coefficient, mean: Fig. 3j
Description: We could also use the data from these bleaching experiments to quantify the membrane-binding kinetics and diffusion of membrane-bound proteins by analysing the change of the fluorescence profile during recovery.
Equimolar concentrations of Cy3- and Cy5-labelled FtsA, supplemented with 20% unlabelled FtsA were used to study FRET and FRAP. Five pre-bleach frames were acquired, followed by acceptor photobleaching of a rectangular ROI with 40% 641 nm laser power and a dwell size of 1 µs/pixel, 75% overlapping lines. The recovery of the signal or the increase in donor intensity were measured with either two frames or one frame per second.
Bleaching the acceptor dye leads to an increase in the donor intensity, which can be used to quantify the Foerster Resonance energy transfer (FRET)[48]. FRET efficiency was quantified with E%=Ipost/Ipost+Ipre⋅100 , where Ipost is the intensity of the […] and Ipre is the […]. […] To extract the contribution of both processes, we adjusted a routine recently published by Gerganova et al.[33]. In short, the code provides the contribution of both modes of recovery by analysing the shape of the fluorescence recovery profile. […] Contribution of diffusion leads to a change of the slope of the outer borders of the bleached region (S4h right). Thus, by measuring the change of the slope of the border recovery, diffusion and simple on/off binding can be distinguished. We developed “FRAPdiff”, a graphical user interface, which uses the original fit routine by David Rutkowski. It can be used directly on.tiff movies with annotated bleach regions as ImageJ ROIs. In addition, we added optional bleach correction, user selectable projection axis (x or y), and optional mirroring of the recovery profiles, if bleaching was not symmetric. The original fit routine for estimating the recovery and diffusion dynamics can be found at https://github.com/davidmrutkowski/1DReflectingDiffusion. FRAPdiff is available at 10.5281/zenodo.6400639[49] under the GPLv3 open-source license.

B1: FtsA R286W (protein)
chain: MIKATDRKLVVGLEIGTAKVAALVGEVLPDGMVNIIGVGSCPSRGMDKGGVNDLESVVKCVQRAIDQAELMADCQISSVYLALSGKHISCQNEIGMVPISEEEVTQEDVENVVHTAKSVRVRDEHRVLHVIPQEYAIDYQEGIKNPVGLSGVRMQAKVHLITCHNDMAKNIVKAVERCGLKVDQLIFAGLASSYSVLTEDERELGVCVVDIGGGTMDIAVYTGGALRHTKVIPYAGNVVTSDIAYAFGTPPSDAEAIKVRHGCALGSIVGKDESVEVPSVGGRPPWSLQRQTLAEVIEPRYTELLNLVNEEILQLQEKLRQQGVKHHLAAGIVLTGGAAQIEGLAACAQRVFHTQVRIGAPLNITGLTDYAQEPYYSTAVGLLHYGKESHLNGEAEVEKRVTASVGSWIKRLNSWLRKEF
modifications: Cy3 or Cy5 at the N-terminus in the labelled form (labelled CLEPTGG peptide conjugated to the 5xGly tag by sortagging); unlabelled protein also used; left off: TwinStrep-SUMO, N-terminal, cleaved | 5x
- Diffusion Coefficient, mean (0.1 µM FtsA + N): 7.25E-02 µm2/s
- Diffusion Coefficient, mean (0.1 µM FtsA + Z&N): 2.31E-02 µm2/s
- Diffusion Coefficient, mean (0.1 µM FtsA + Z): 5.72E-03 µm2/s
- Diffusion Coefficient (0.1µM FtsA alone, Mean, n=18 (WT), 6 (R286W)): 0.0520
- Diffusion Coefficient, mean (0.1 µM FtsA alone): 5.20E-02 µm2/s
- Diffusion Coefficient (0.1µM FtsA alone, replicate Exp.1): 8.43E-02
- Diffusion Coefficient (0.1µM FtsA alone, replicate Exp.2): 1.09E-02
- Diffusion Coefficient (0.1µM FtsA alone, replicate Exp.3): 6.73E-03
- Diffusion Coefficient (0.1µM FtsA alone, replicate Exp.4): 8.58E-02
- Diffusion Coefficient (0.1µM FtsA alone, replicate Exp.5): 8.30E-02
- Diffusion Coefficient (0.1µM FtsA alone, replicate Exp.6): 4.11E-02
- Diffusion Coefficient (0.1µM, + FtsN&Z, Mean, n=5 (WT), 3 (R286W)): 0.0231
- Diffusion Coefficient (0.1µM, + FtsN&Z, replicate Exp.1): 1.54E-02
- Diffusion Coefficient (0.1µM, + FtsN&Z, replicate Exp.2): 3.28E-02
- Diffusion Coefficient (0.1µM, + FtsN&Z, replicate Exp.3): 2.10E-02
- Diffusion Coefficient (0.1µM, + FtsN, Mean, n=5 (WT), 3 (R286W)): 0.0725
- Diffusion Coefficient (0.1µM, + FtsN, replicate Exp.1): 2.08E-01
- Diffusion Coefficient (0.1µM, + FtsN, replicate Exp.2): 5.52E-03
- Diffusion Coefficient (0.1µM, + FtsN, replicate Exp.3): 4.11E-03
- Diffusion Coefficient (0.1µM, + FtsZ, Mean, n=8 (WT), 4 (R286W)): 0.0057
- Diffusion Coefficient (0.1µM, + FtsZ, replicate Exp.1): 3.86E-04
- Diffusion Coefficient (0.1µM, + FtsZ, replicate Exp.2): 2.70E-04
- Diffusion Coefficient (0.1µM, + FtsZ, replicate Exp.3): 1.57E-02
- Diffusion Coefficient (0.1µM, + FtsZ, replicate Exp.4): 6.48E-03
- Diffusion Coefficient, mean (0.2 µM FtsA + N): 7.49E-02 µm2/s
- Diffusion Coefficient, mean (0.2 µM FtsA + Z&N): 3.50E-02 µm2/s
- Diffusion Coefficient, mean (0.2 µM FtsA + Z): 1.81E-02 µm2/s
- Diffusion Coefficient (0.2µM FtsA alone, Mean, n=24 (WT), 6 (R286W)): 0.1536
- Diffusion Coefficient, mean (0.2 µM FtsA alone): 1.54E-01 µm2/s
- Diffusion Coefficient (0.2µM FtsA alone, replicate Exp.1): 5.97E-01
- Diffusion Coefficient (0.2µM FtsA alone, replicate Exp.2): 7.31E-02
- Diffusion Coefficient (0.2µM FtsA alone, replicate Exp.3): 7.49E-02
- Diffusion Coefficient (0.2µM FtsA alone, replicate Exp.4): 3.26E-02
- Diffusion Coefficient (0.2µM FtsA alone, replicate Exp.5): 1.37E-01
- Diffusion Coefficient (0.2µM FtsA alone, replicate Exp.6): 6.07E-03
- Diffusion Coefficient (0.2µM, + FtsN&Z, Mean, n=8 (WT), 6 (R286W)): 0.0350
- Diffusion Coefficient (0.2µM, + FtsN&Z, replicate Exp.1): 5.92E-02
- Diffusion Coefficient (0.2µM, + FtsN&Z, replicate Exp.2): 5.62E-02
- Diffusion Coefficient (0.2µM, + FtsN&Z, replicate Exp.3): 3.73E-02
- Diffusion Coefficient (0.2µM, + FtsN&Z, replicate Exp.4): 2.25E-02
- Diffusion Coefficient (0.2µM, + FtsN&Z, replicate Exp.5): 3.21E-02
- Diffusion Coefficient (0.2µM, + FtsN&Z, replicate Exp.6): 2.82E-03
- Diffusion Coefficient (0.2µM, + FtsN, Mean, n=7 (WT), 4 (R286W)): 0.0749
- Diffusion Coefficient (0.2µM, + FtsN, replicate Exp.1): 3.41E-02
- Diffusion Coefficient (0.2µM, + FtsN, replicate Exp.2): 6.37E-02
- Diffusion Coefficient (0.2µM, + FtsN, replicate Exp.3): 1.01E-01
- Diffusion Coefficient (0.2µM, + FtsN, replicate Exp.4): 1.01E-01
- Diffusion Coefficient (0.2µM, + FtsZ, Mean, n=7 (WT), 6 (R286W)): 0.0181
- Diffusion Coefficient (0.2µM, + FtsZ, replicate Exp.1): 2.61E-02
- Diffusion Coefficient (0.2µM, + FtsZ, replicate Exp.2): 3.49E-02
- Diffusion Coefficient (0.2µM, + FtsZ, replicate Exp.3): 2.40E-02
- Diffusion Coefficient (0.2µM, + FtsZ, replicate Exp.4): 1.48E-02
- Diffusion Coefficient (0.2µM, + FtsZ, replicate Exp.5): 2.86E-04
- Diffusion Coefficient (0.2µM, + FtsZ, replicate Exp.6): 8.41E-03
- Diffusion Coefficient, mean (0.4 µM FtsA + N): 4.57E-02 µm2/s
- Diffusion Coefficient, mean (0.4 µM FtsA + Z&N): 7.88E-03 µm2/s
- Diffusion Coefficient, mean (0.4 µM FtsA + Z): 3.05E-02 µm2/s
- Diffusion Coefficient (0.4µM FtsA alone, Mean, n=18 (WT), 9 (R286W)): 0.1352
- Diffusion Coefficient, mean (0.4 µM FtsA alone): 1.35E-01 µm2/s
- Diffusion Coefficient (0.4µM FtsA alone, replicate Exp.1): 1.81E-01
- Diffusion Coefficient (0.4µM FtsA alone, replicate Exp.2): 2.05E-02
- Diffusion Coefficient (0.4µM FtsA alone, replicate Exp.3): 2.71E-02
- Diffusion Coefficient (0.4µM FtsA alone, replicate Exp.4): 1.05E-01
- Diffusion Coefficient (0.4µM FtsA alone, replicate Exp.5): 1.05E-01
